Reference: patent publication US20120021995A1 (published 2012)

B1: 029-15.A1H (designed binder)
chain: EPPTQKPKKIVNAKKDVVNTKMFEELKSRLDTLAQEVALLKEQQALQTVCLKGTKVHMKCFLAFTQTKTFHEASEDCISRGGTLSTPQTGSENDALYEYLRQSVGNEAEIWLGLNRAVLRPRWVDMTGARIAYKNWETEITAQPDGGWVLGGKNCAVLSGAANGKWFDKRCRDQLPYICQFGIV
notes: ATRIMER; also called 8b6b

Tests used:
[1] = molecular target: T1, DR4 (TRAIL-R1) on cancer cells (human, UniProt O00220 24-468); assay: cell-based or functional assay
T1 sequence: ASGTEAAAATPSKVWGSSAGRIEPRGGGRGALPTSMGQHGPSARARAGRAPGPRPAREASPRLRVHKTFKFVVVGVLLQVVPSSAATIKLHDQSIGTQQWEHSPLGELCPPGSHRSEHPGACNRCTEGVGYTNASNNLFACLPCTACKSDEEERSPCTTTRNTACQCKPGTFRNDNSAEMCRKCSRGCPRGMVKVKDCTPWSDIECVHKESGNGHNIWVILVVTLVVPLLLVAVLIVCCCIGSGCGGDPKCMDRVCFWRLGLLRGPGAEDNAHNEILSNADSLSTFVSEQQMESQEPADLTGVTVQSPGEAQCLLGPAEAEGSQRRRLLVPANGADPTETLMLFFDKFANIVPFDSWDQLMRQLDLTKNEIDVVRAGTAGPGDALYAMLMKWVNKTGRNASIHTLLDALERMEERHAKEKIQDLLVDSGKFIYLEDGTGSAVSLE

[2] = molecular target: T2, recombinant human TRAIL R2 (DR5)/Fc chimera (human, UniProt O14763 54-182); assay: SPR (Biacore), DR5-Fc captured by anti-Fc, ATRIMER analyte; apparent
T2 construct: bought (R&D Systems); not shown: Fc of the bought chimera (R&D Systems)
Procedure: Immobilization of an anti-human IgG Fc antibody (Biacore) to the CM5 chip (Biacore) was performed using standard amine coupling chemistry and this surface was used to capture recombinant human DR4 or DR5 receptor Fc fusion protein (R&D Systems). ATRIMER™ dilutions (1-500 nM) were injected over the DR4 and DR5 receptor surface at 30 μl/min and kinetic constants were derived from the sensorgram data using the Biaevaluation software (version 3.1, Biacore). Data collection was 3 minutes for the association and 5 minutes for dissociation. The anti-human IgG surface was regenerated with a 30 s pulse of 3 M magnesium chloride. All sensorgrams were double-referenced against an activated and blocked flow-cell as well as buffer injections.

[3] = molecular target: DR5 (TRAIL-R2) on cancer cells (human, UniProt O14763 56-440); assay: cell-based or functional assay

| Molecule | EC50 Colo205 (cell killing) [1] [nM] | EC50 ST486 (cell killing) [1] [nM] | Ka [2] [M⁻¹] | Kd [2] [nM] | koff [2] [s⁻¹] | kon [2] [M⁻¹ s⁻¹] | % cell death of H2122 and A2780 cells, 20 µg/mL, 20 h [3] [%] |
| --- | --- | --- | --- | --- | --- | --- | --- |
| rhTRAIL-His (from UniProt P50591 95-281) (ligand) | 0.06 | 0.06 |  |  |  |  |  |
| B1 |  |  | 2.56e+07 | 39.1 | 0.000506 | 12900 | > 50 |
